Bridges are numbered along the chain shown (N, C = ends). [ ]: non-standard residue; d: D form. The star is where a group is joined. Trp(7-Ph) = N[C@@H](Cc1c[nH]c2c(-c3ccccc3)cccc12)C(=O)O; Trp(7-Me) = Cc1cccc2c(C[C@H](N)C(=O)O)c[nH]c12; 2Nal = N[C@@H](Cc1ccc2ccccc2c1)C(=O)O; d(αMeF) = C[C@@](N)(Cc1ccccc1)C(=O)O; AEF = NCCOc1ccc(C[C@H](N)C(=O)O)cc1; Cyclopropanecarbonyl = O=C(C1CC1)*; αMeF = C[C@](N)(Cc1ccccc1)C(=O)O; β3hF = N[C@H](CC(=O)O)Cc1ccccc1; Pen = CC(C)(S)[C@H](N)C(=O)O; αMeK = C[C@](N)(CCCCN)C(=O)O; 3Quin = not defined here; Isobutyryl = CC(C)C(=O)*; Thp = NC1(C(=O)O)CCOCC1; Abu = CC[C@H](N)C(=O)O; Hexanoyl = CCCCCC(=O)*; Aib = CC(C)(N)C(=O)O; Propionyl = CCC(=O)*; Tfa = O=C(C(F)(F)F)*; Butyryl = CCCC(=O)*; Ahx = NCCCCCC(=O)O
T1: human IL-23R (interleukin-23 receptor) (human, UniProt Q5VWK5 24-629)
T1 sequence (looked up): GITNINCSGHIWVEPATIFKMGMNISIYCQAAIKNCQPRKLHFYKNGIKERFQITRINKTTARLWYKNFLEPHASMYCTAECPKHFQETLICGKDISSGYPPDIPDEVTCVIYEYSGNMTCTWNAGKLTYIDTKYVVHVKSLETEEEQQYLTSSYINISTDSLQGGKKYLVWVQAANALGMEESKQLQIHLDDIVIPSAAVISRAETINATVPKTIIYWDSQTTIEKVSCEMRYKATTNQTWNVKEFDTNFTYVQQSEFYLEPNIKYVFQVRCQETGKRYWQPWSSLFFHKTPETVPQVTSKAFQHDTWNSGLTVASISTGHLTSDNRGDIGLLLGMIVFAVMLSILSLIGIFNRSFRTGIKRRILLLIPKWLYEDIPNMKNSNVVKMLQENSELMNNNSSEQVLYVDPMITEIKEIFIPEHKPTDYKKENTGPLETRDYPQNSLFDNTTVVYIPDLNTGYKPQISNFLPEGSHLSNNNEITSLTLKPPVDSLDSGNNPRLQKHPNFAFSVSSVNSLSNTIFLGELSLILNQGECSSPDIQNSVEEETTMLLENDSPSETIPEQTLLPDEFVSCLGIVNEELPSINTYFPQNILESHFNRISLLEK


molecular target: T1, human IL-23R (interleukin-23 receptor); assay: cell-based or functional assay

| pStat3 HTRF (nM), IC50, DB cells IL23R pSTAT3 cell assay | PBMC pSTAT3 IC50 (nM) | Binder |
| --- | --- | --- |
| 2.75 nM |  | Ac-[Pen]NT[Trp(7-Me)]K(Ac)[Pen][AEF][2Nal][αMeK]K(Ac)N[dL][d(αMeF)]-NH2 (disulfide 1-6; SMILES CC(=O)NCCCC[C@@H]1NC(=O)[C@H](Cc2c[nH]c3c(C)cccc23)NC(=O)[C@H]([C@@H](C)O)NC(=O)[C@H](CC(N)=O)NC(=O)[C@@H](NC(C)=O)C(C)(C)SSC(C)(C)[C@@H](C(=O)N[C@@H](Cc2ccc(OCCN)cc2)C(=O)N[C@@H](Cc2ccc3ccccc3c2)C(=O)N[C@@](C)(CCCCN)C(=O)N[C@@H](CCCCNC(C)=O)C(=O)N[C@@H](CC(N)=O)C(=O)N[C@H](CC(C)C)C(=O)N[C@](C)(Cc2ccccc2)C(N)=O)NC1=O) [Compound No. 69] |
|  | 44 nM | Ac-[dR][Pen]QTWQ[Pen][AEF][2Nal][Thp]K(Tfa)NF-NH2 (disulfide 2-7; SMILES CC(=O)N[C@H](CCCNC(=N)N)C(=O)N[C@@H]1C(=O)N[C@@H](CCC(N)=O)C(=O)N[C@@H]([C@@H](C)O)C(=O)N[C@@H](Cc2c[nH]c3ccccc23)C(=O)N[C@@H](CCC(N)=O)C(=O)N[C@H](C(=O)N[C@@H](Cc2ccc(OCCN)cc2)C(=O)N[C@@H](Cc2ccc3ccccc3c2)C(=O)NC2(C(=O)N[C@@H](CCCCNC(=O)C(F)(F)F)C(=O)N[C@@H](CC(N)=O)C(=O)N[C@@H](Cc3ccccc3)C(N)=O)CCOCC2)C(C)(C)SSC1(C)C) [Compound No. 60] |
| 7 nM |  | Ac-[Pen]NT[Trp(7-Me)]K(Ac)[Pen][AEF][2Nal][αMeK]K(Ac)N[dL][αMeF]-NH2 (disulfide 1-6; SMILES CC(=O)NCCCC[C@@H]1NC(=O)[C@H](Cc2c[nH]c3c(C)cccc23)NC(=O)[C@H]([C@@H](C)O)NC(=O)[C@H](CC(N)=O)NC(=O)[C@@H](NC(C)=O)C(C)(C)SSC(C)(C)[C@@H](C(=O)N[C@@H](Cc2ccc(OCCN)cc2)C(=O)N[C@@H](Cc2ccc3ccccc3c2)C(=O)N[C@@](C)(CCCCN)C(=O)N[C@@H](CCCCNC(C)=O)C(=O)N[C@@H](CC(N)=O)C(=O)N[C@H](CC(C)C)C(=O)N[C@@](C)(Cc2ccccc2)C(N)=O)NC1=O) [Compound No. 68] |
| 5.52 nM |  | Ac-[Abu]QT[Trp(7-Ph)]K(Ac)C[AEF][2Nal][αMeK]K(Ac)N[αMeF]-NH2 (thioether 1-6) [Compound No. 67] |
| 0.413 nM |  | Ac-[Pen]NT[Trp(7-Ph)]K(Ac)[Pen][AEF][3Quin][Thp]EN[Aib]-NH2 (disulfide 1-6; reading uncertain) [Compound No. 62] |
|  | 25 nM | Ac-[dR][Pen]QTWQ[Pen][AEF][2Nal][Thp]K(Cyclopropanecarbonyl)NF-NH2 (disulfide 2-7; SMILES CC(=O)N[C@H](CCCNC(=N)N)C(=O)N[C@@H]1C(=O)N[C@@H](CCC(N)=O)C(=O)N[C@@H]([C@@H](C)O)C(=O)N[C@@H](Cc2c[nH]c3ccccc23)C(=O)N[C@@H](CCC(N)=O)C(=O)N[C@H](C(=O)N[C@@H](Cc2ccc(OCCN)cc2)C(=O)N[C@@H](Cc2ccc3ccccc3c2)C(=O)NC2(C(=O)N[C@@H](CCCCNC(=O)C3CC3)C(=O)N[C@@H](CC(N)=O)C(=O)N[C@@H](Cc3ccccc3)C(N)=O)CCOCC2)C(C)(C)SSC1(C)C) [Compound No. 55] |
|  | 67 nM | Ac-[dR][Pen]QTWQ[Pen][AEF][2Nal][Thp]K(Hexanoyl)NF-NH2 (disulfide 2-7; SMILES CCCCCC(=O)NCCCC[C@H](NC(=O)C1(NC(=O)[C@H](Cc2ccc3ccccc3c2)NC(=O)[C@H](Cc2ccc(OCCN)cc2)NC(=O)[C@H]2NC(=O)[C@H](CCC(N)=O)NC(=O)[C@H](Cc3c[nH]c4ccccc34)NC(=O)[C@H]([C@@H](C)O)NC(=O)[C@H](CCC(N)=O)NC(=O)[C@@H](NC(=O)[C@@H](CCCNC(=N)N)NC(C)=O)C(C)(C)SSC2(C)C)CCOCC1)C(=O)N[C@@H](CC(N)=O)C(=O)N[C@@H](Cc1ccccc1)C(N)=O) [Compound No. 59] |
|  | 70 nM | Ac-[dR][Pen]QTWQ[Pen][AEF][2Nal][Thp]K(Isobutyryl)NF-NH2 (disulfide 2-7; SMILES CC(=O)N[C@H](CCCNC(=N)N)C(=O)N[C@@H]1C(=O)N[C@@H](CCC(N)=O)C(=O)N[C@@H]([C@@H](C)O)C(=O)N[C@@H](Cc2c[nH]c3ccccc23)C(=O)N[C@@H](CCC(N)=O)C(=O)N[C@H](C(=O)N[C@@H](Cc2ccc(OCCN)cc2)C(=O)N[C@@H](Cc2ccc3ccccc3c2)C(=O)NC2(C(=O)N[C@@H](CCCCNC(=O)C(C)C)C(=O)N[C@@H](CC(N)=O)C(=O)N[C@@H](Cc3ccccc3)C(N)=O)CCOCC2)C(C)(C)SSC1(C)C) [Compound No. 61] |
|  | 4.9 nM | Ac-[dR][Pen]QTWQ[Pen][AEF][2Nal][Thp]K(Ac)N[Thp]-NH2 (disulfide 2-7; SMILES CC(=O)NCCCC[C@H](NC(=O)C1(NC(=O)[C@H](Cc2ccc3ccccc3c2)NC(=O)[C@H](Cc2ccc(OCCN)cc2)NC(=O)[C@H]2NC(=O)[C@H](CCC(N)=O)NC(=O)[C@H](Cc3c[nH]c4ccccc34)NC(=O)[C@H]([C@@H](C)O)NC(=O)[C@H](CCC(N)=O)NC(=O)[C@@H](NC(=O)[C@@H](CCCNC(=N)N)NC(C)=O)C(C)(C)SSC2(C)C)CCOCC1)C(=O)N[C@@H](CC(N)=O)C(=O)NC1(C(N)=O)CCOCC1) [Compound No. 56] |
| 1.22 nM |  | Ac-[Pen]NT[Trp(7-Me)]K(Ac)[Pen][AEF][2Nal][αMeK]K(Ac)N[Aib][Ahx]-NH2 (disulfide 1-6; SMILES CC(=O)NCCCC[C@@H]1NC(=O)[C@H](Cc2c[nH]c3c(C)cccc23)NC(=O)[C@H]([C@@H](C)O)NC(=O)[C@H](CC(N)=O)NC(=O)[C@@H](NC(C)=O)C(C)(C)SSC(C)(C)[C@@H](C(=O)N[C@@H](Cc2ccc(OCCN)cc2)C(=O)N[C@@H](Cc2ccc3ccccc3c2)C(=O)N[C@@](C)(CCCCN)C(=O)N[C@@H](CCCCNC(C)=O)C(=O)N[C@@H](CC(N)=O)C(=O)NC(C)(C)C(=O)NCCCCCC(N)=O)NC1=O) [Compound No. 70] |
| 1.02 nM |  | Ac-[Pen]NT[Trp(7-Ph)]K(Ac)[Pen][AEF][3Quin][αMeK]K(Ac)N[Aib]-NH2 (disulfide 1-6; reading uncertain) [Compound No. 63] |
| 3.39 nM |  | Ac-[Pen]NT[Trp(7-Me)]K(Ac)[Pen][AEF][2Nal][αMeK]K(Ac)N[Aib][β3hF]-NH2 (disulfide 1-6; SMILES CC(=O)NCCCC[C@@H]1NC(=O)[C@H](Cc2c[nH]c3c(C)cccc23)NC(=O)[C@H]([C@@H](C)O)NC(=O)[C@H](CC(N)=O)NC(=O)[C@@H](NC(C)=O)C(C)(C)SSC(C)(C)[C@@H](C(=O)N[C@@H](Cc2ccc(OCCN)cc2)C(=O)N[C@@H](Cc2ccc3ccccc3c2)C(=O)N[C@@](C)(CCCCN)C(=O)N[C@@H](CCCCNC(C)=O)C(=O)N[C@@H](CC(N)=O)C(=O)NC(C)(C)C(=O)N[C@H](CC(N)=O)Cc2ccccc2)NC1=O) [Compound No. 71] |
|  | 35 nM | Ac-[dR][Pen]QTWQ[Pen][AEF][2Nal][Thp]K(Butyryl)NF-NH2 (disulfide 2-7; SMILES CCCC(=O)NCCCC[C@H](NC(=O)C1(NC(=O)[C@H](Cc2ccc3ccccc3c2)NC(=O)[C@H](Cc2ccc(OCCN)cc2)NC(=O)[C@H]2NC(=O)[C@H](CCC(N)=O)NC(=O)[C@H](Cc3c[nH]c4ccccc34)NC(=O)[C@H]([C@@H](C)O)NC(=O)[C@H](CCC(N)=O)NC(=O)[C@@H](NC(=O)[C@@H](CCCNC(=N)N)NC(C)=O)C(C)(C)SSC2(C)C)CCOCC1)C(=O)N[C@@H](CC(N)=O)C(=O)N[C@@H](Cc1ccccc1)C(N)=O) [Compound No. 58] |
|  | 18 nM | Ac-[dR][Pen]QTWQ[Pen][AEF][2Nal][Thp]K(Propionyl)N[Thp]-NH2 (disulfide 2-7; SMILES CCC(=O)NCCCC[C@H](NC(=O)C1(NC(=O)[C@H](Cc2ccc3ccccc3c2)NC(=O)[C@H](Cc2ccc(OCCN)cc2)NC(=O)[C@H]2NC(=O)[C@H](CCC(N)=O)NC(=O)[C@H](Cc3c[nH]c4ccccc34)NC(=O)[C@H]([C@@H](C)O)NC(=O)[C@H](CCC(N)=O)NC(=O)[C@@H](NC(=O)[C@@H](CCCNC(=N)N)NC(C)=O)C(C)(C)SSC2(C)C)CCOCC1)C(=O)N[C@@H](CC(N)=O)C(=O)NC1(C(N)=O)CCOCC1) [Compound No. 57] |
